In patent publication US20250250357A1 (NANJING ZAIMING PHARMACEUTICAL, published 2025):
Positions count from the first letter of the chain named.

B1: S009-F7.21.16 chimeric antibody (antibody, human IgG1, kappa, V domains shown)
VH: QVQLQQPGTELVKPGASVKLSCKASGYTFTTFWMHWVKQRPGQGLEWIGGVNPTNGGTNYNEKFRTKATLTVDKSSTTADMQLSSLTSEDSAVYYCAPHYISSRPGFAYWGQGTLVTVSG
VL: DIVMTQSQKFMSTSGGDRVSVTCKASQNVGTNVAWYQQKPGQSPKALIYSASYRYSGVPDRFTGSGSGTDFILTISNVQSEDLAEYFCQQYNSYPLTFGGGTKLEIKR
notes: Human-murine chimeric antibody, human IgG1/kappa constant regions
B2: S009-F7.23.19 chimeric antibody (antibody, human IgG1, kappa, V domains shown)
VH: EVKLVESGGGLVQPGGSLSLSCAASGFTFTDYYMSWVRQPPGKALEWLGFIRSKANAYTTEYSASVKGRFTISRDNSQSILYLQMNDLRAEDSATYYCARYYYYGSGYVWYFDVWGTGTTVTVSS
VL: B1 VL with G15V, N28S, S43F, I72T, S76I, G100A, I106L
notes: as for B1
B3: S009-F7.26.15 chimeric antibody (antibody, human IgG1, kappa, V domains shown)
VH: DVQLQESGPGLVKPSQTVFLTCTVTGISITTGNYRWSWIRQFPGNKLEWIGYIYYTGFITYNPSLTSRTTITRDTPKNQFFLEMKSLTAEDTATYYCARDDYDYDVFAYWGQGTLVTVSA
VL: DIQMTQSPASLSASVGETVTITCRASGNIHNYLAWYHQKQGKSPQFLVYKAKTLADGVPSRFSGSGSGTQYSLKINRLQPEDFGSYYCQHFLSIPLTFGAGTKLELKR
notes: as for B1
B4: S009-F7.30.5 chimeric antibody (antibody, human IgG1, kappa, V domains shown)
VH: QVQLQQPKTELVKPGASVKLSCKASGYIFTTYWMHWVKQRPGQGLEWIGNVNPSNGGTMYNEKFERRATLTVDKSSSTADMQLSSLTSEDSAVYYCVPHYIGSRPGFAYWGQGTLVTVSG
VL: B1 VL with G15V, Q38H, I48L, I72T, S76T
notes: as for B1
B5: S009-F7.33.24 chimeric antibody (antibody, human IgG1, kappa, V domains shown)
VH: B1 VH with T31S, F32Y, G50N, T54S, T58S, R65K, T66N, T77S, S84N, S102G
VL: B1 VL with G15V, V33I, I72T, S76T, L104V
notes: as for B1

How the values were obtained:
[1] = molecular target: T1, human MSLN-R1-his protein (human, UniProt Q13421 296-390); assay: ELISA, coated antigen, antibody 20 nM
T1 construct: Made in HEK293E cells, purified on nickel column; also called hMSLN-R1-his; human MSLN-R1 protein; not shown: His tag
T1 chain: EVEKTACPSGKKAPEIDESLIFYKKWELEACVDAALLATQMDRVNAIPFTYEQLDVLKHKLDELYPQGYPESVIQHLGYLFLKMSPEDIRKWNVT

[2] = molecular target: T2, human MSLN-FL-his protein (human, UniProt Q13421 296-580); assay: ELISA, coated antigen, antibody 2 nM
T2 construct: Made in HEK293E cells, purified on nickel column; also called hMSLN-FL-his; human MSLN full-length protein; not shown: His tag
Target sequence in this assay (Q13421 other isoform, or with tags, fused parts or gaps): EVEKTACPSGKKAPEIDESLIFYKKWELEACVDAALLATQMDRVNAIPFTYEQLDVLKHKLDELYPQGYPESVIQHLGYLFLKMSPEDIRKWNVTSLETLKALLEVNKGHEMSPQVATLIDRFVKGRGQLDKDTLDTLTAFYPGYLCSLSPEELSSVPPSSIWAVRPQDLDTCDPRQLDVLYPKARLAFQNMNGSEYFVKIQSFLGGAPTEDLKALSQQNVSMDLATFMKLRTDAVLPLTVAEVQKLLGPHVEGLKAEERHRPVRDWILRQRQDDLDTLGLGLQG

[3] = molecular target: T1, human MSLN-R1-his protein; assay: ELISA, coated antigen, antibody 0.002 nM
Experimental: (§1) The plate was sealed with a plastic film and incubated at 4° C. overnight. The next day, the plate was washed twice with PBST, and a blocking buffer [PBS+2% (w/w) BSA] was added for blocking at room temperature for 2 h. The blocking buffer was discarded, and a chimeric antibody or negative control antibody serially diluted from 100 nM was added at 50 μL/well. After incubation at 37° C. for 2 h, the plate was washed 3 times with PBST. […] After incubation at 37° C. for 2 h, the plate was washed 5 times with PBST. A TMB substrate was added at 50 μL/well for incubation at room temperature for 5-10 min, and then a stop solution (1.0 N HCl) was added at 50 μL/well.

[4] = molecular target: T2, human MSLN-FL-his protein; assay: ELISA, coated antigen, antibody 0.2 nM
Target sequence in this assay (Q13421 other isoform, or with tags, fused parts or gaps): as above
Experimental: as §1

[5] = molecular target: T1, human MSLN-R1-his protein; assay: ELISA, coated antigen, antibody 200 nM
Experimental: as §1

[6] = molecular target: T2, human MSLN-FL-his protein; assay: ELISA, coated antigen, antibody 0.002 nM
Target sequence in this assay (Q13421 other isoform, or with tags, fused parts or gaps): as above
Experimental: as §1

[7] = molecular target: T1, human MSLN-R1-his protein; assay: ELISA, coated antigen, antibody 0.02 nM
Experimental: as §1

[8] = molecular target: T1, human MSLN-R1-his protein; assay: ELISA, coated antigen, antibody 2 nM
Experimental: as §1

[9] = molecular target: T1, human MSLN-R1-his protein; assay: ELISA, coated antigen, no antibody (blank)
Experimental: as §1

[10] = molecular target: T2, human MSLN-FL-his protein; assay: ELISA, coated antigen, antibody 0.02 nM
Target sequence in this assay (Q13421 other isoform, or with tags, fused parts or gaps): as above
Experimental: as §1

[11] = molecular target: T1, human MSLN-R1-his protein; assay: ELISA, coated antigen, antibody 0.2 nM
Experimental: as §1

[12] = molecular target: T1, human MSLN-R1-his protein; assay: ELISA, coated antigen, antibody 0.0002 nM
Experimental: as §1

[13] = molecular target: T2, human MSLN-FL-his protein; assay: ELISA, coated antigen, no antibody (blank)
[14] = molecular target: T2, human MSLN-FL-his protein; assay: ELISA, coated antigen, antibody 0.0002 nM
Target sequence in this assay (Q13421 other isoform, or with tags, fused parts or gaps): as above
Experimental: as §1

[15] = molecular target: T2, human MSLN-FL-his protein; assay: ELISA, coated antigen, antibody 200 nM
Target sequence in this assay (Q13421 other isoform, or with tags, fused parts or gaps): as above
Experimental: as §1

[16] = molecular target: T2, human MSLN-FL-his protein; assay: ELISA, coated antigen, antibody 20 nM

Binder | OD450 [1] | OD450 [2] | OD450 [3] | OD450 [4] | OD450 [5] | OD450 [6] | OD450 [7] | OD450 [8] | OD450 [9] | OD450 [10] | OD450 [11] | OD450 [12] | OD450 [13] | OD450 [14] | OD450 [15] | OD450 [16]
B1 | 0.06 | 2.31 | 0.05 | 2.15 | 0.17 | 0.82 | 0.05 | 0.05 | 0.07 | 1.39 | 0.05 | 0.04 | 0.08 | 0.35 | 2.42 | 2.46
B2 | 0.05 | 2.4 | 0.05 | 2.22 | 0.08 | 0.41 | 0.05 | 0.05 | 0.06 | 1.32 | 0.05 | 0.05 | 0.06 | 0.11 | 2.5 | 2.46
B3 | 0.06 | 2.43 | 0.05 | 2.33 | 0.12 | 0.91 | 0.05 | 0.05 | 0.06 | 1.76 | 0.05 | 0.04 | 0.06 | 0.25 | 2.39 | 2.52
B4 | 0.1 | 2.41 | 0.05 | 2.39 | 0.32 | 0.96 | 0.05 | 0.06 | 0.06 | 1.77 | 0.05 | 0.05 | 0.06 | 0.36 | 2.36 | 2.43
B5 | 0.08 | 2.54 | 0.06 | 2.6 | 0.15 | 1.06 | 0.06 | 0.06 | 0.06 | 2.01 | 0.05 | 0.06 | 0.06 | 0.26 | 2.48 | 2.53
